T1: extracellular domain (ECD) of recombinant human Sortilin with a C-terminal HIS tag (ECD-huSortilin-HIS) (human, UniProt Q99523 78-755)
T1 construct: Bought (R&D Systems); also called human sortilin-ECD; not shown: C-terminal HIS tag
T1 sequence: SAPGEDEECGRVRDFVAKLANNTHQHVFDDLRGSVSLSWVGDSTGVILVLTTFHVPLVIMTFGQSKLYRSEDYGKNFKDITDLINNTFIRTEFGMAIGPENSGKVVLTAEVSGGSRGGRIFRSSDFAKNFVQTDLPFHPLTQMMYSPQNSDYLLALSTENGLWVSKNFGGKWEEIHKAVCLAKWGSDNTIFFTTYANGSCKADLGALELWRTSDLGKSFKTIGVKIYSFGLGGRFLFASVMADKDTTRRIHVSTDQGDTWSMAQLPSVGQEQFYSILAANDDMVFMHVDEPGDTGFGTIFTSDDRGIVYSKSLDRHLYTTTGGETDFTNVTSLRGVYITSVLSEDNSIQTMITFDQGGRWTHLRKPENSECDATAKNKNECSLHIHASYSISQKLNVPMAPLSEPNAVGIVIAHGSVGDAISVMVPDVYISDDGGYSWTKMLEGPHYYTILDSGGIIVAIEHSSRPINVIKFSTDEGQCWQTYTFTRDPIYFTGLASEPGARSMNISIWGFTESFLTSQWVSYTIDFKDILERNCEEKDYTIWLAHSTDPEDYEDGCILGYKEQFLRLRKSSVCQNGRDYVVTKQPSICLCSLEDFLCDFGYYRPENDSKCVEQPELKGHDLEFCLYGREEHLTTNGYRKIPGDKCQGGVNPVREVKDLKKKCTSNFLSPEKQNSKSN


Legend:
[1] = target: T1, extracellular domain (ECD) of …; experiment: ELISA, ECD-huSortilin-HIS coated at 1 ug/mL, goat anti-human IgG-HRP, chemiluminescence
Experimental: 384-well ELISA plates were coated with 1 ug/mL recombinant ECD-huSortilin-HIS (20 uL/well) and incubated overnight at 4° C. all plates were blocked with 3% BSA in PBS for 1 hour at room temperature. Plates were then washed with Tris buffered saline containing 0.1% Tween20 (TBST) three times. 20 uL of humanized anti-Sortilin mAbs diluted 3-fold from 20 ug/mL to 0.3 ng/mL in 1% BSA in TBST were added to the wells, incubated for 1 hour at room temperature and then washed as above. Goat anti-human IgG specific-HRP (Jackson Immunoresearch) diluted 1:7000 in 1% BSA in TBST was then added at 20 uL per well to react with the bound antibodies and plates were incubated for 1 hour before being washed as above. Super signal Pico chemiluminescent ELISA substrate (ThermoFisher) was used for detection. 20 uL of substrate was added to each well and Relative Light Units (RLU) were measured immediately using the SpectraMax Paradigm (Molecular Devices). Data was analyzed and EC₅₀ was calculated using graphed Prism.

[2] = target: T1, extracellular domain (ECD) of …; experiment: SPR (Biacore T200), mAb captured by anti-human antibody on CM5, Sortilin 0.1-300 nM as analyte, global 1:1 fit
Experimental: Analysis was performed using a Biacore T200 to compare the binding affinity of chimeric and humanized antibodies to recombinant human Sortilin. Anti-Human antibody was immobilized on sensor chip CM5 (GE Healthcare Life Sciences) via amine coupling, and humanized antibodies (ligand) were captured to a level to ensure a maximum binding of analyte of 50 RU (approximately 100 RU of ligand binding). Various concentrations of Sortilin (ranging from 0.1 nM to 300 nM) were passed over the captured ligand at 50 μL/min in running buffer (HBS+0.05% P-20, 1 mg/mL BSA) for 300s association time and 1200s dissociation time. Regeneration of the chip surface was accomplished by 2 short injections of 3M MgCl. Data was blank subtracted to both a sensor not containing ligand and 0 nM analyte concentration. Analysis was performed using a global 1:1 fit with Biacore Insight Evaluation software (v2.0) with bulk refractive index set to zero RU.

Binder	EC50 [1]	Kd [2]	koff [2]	kon [2]
humanized 5E20 hu5E20VHv1/hu5E20VLv1 (antibody, V domains shown, Human IgG (detected or captured with anti-human IgG; huIgG1 control); also called 5E20H1L1) VH: EVQLLESGGGLVQPGGSLRLSCAASGFTFSTYGMSWVRQAPGKGLEWVAIISSGGSYTYYSDTVKGRFTISRDNSKNTLYLQMNSLRAEDTAVYYCSRSSSHWYFDVWGQGTLVTVSS VL: DIQMTQSPSSLSASVGDRVTITCHASQGISSNIGWLQQKPGKAFKGLIYHGTNLKDGVPSRFSGSGSGADFTLTISSLQPEDFATYFCVQYAQFPYTFGGGTKVEIR	0.12 µg/mL			
humanized 5E20 hu5E20VHv2/hu5E20VLv1 (antibody, V domains shown, Human IgG; also called 5E20H2L1) VH: EVQLVESGGGLVQPGGSLRLSCAASGFTFSTYGMSWVRQAPGKGLEWVAIISSGGSYTYYSDTVKGRFTISRDNSKNSLYLQMNSLRAEDTAVYYCSRSSSHWYFDVWGQGTLVTVSS VL: DIQMTQSPSSLSASVGDRVTITCHASQGISSNIGWLQQKPGKAFKGLIYHGTNLKDGVPSRFSGSGSGADFTLTISSLQPEDFATYFCVQYAQFPYTFGGGTKVEIR	0.12 µg/mL			
humanized 5E20 hu5E20VHv2/hu5E20VLv2 (antibody, V domains shown, Human IgG; also called 5E20H2L2) VH: EVQLVESGGGLVQPGGSLRLSCAASGFTFSTYGMSWVRQAPGKGLEWVAIISSGGSYTYYSDTVKGRFTISRDNSKNSLYLQMNSLRAEDTAVYYCSRSSSHWYFDVWGQGTLVTVSS VL: DIQMTQSPSSVSASVGDRVTITCHASQGISSNIGWLQQKPGKAFKGLIYHGTNLKDGVPSRFSGSGSGADFTLTISSLQPEDFATYFCVQYAQFPYTFGQGTKVEIR	0.08 µg/mL			
humanized 5E20 hu5E20VHv1/hu5E20VLv3 (antibody, V domains shown, Human IgG; also called 5E20H1L3) VH: EVQLLESGGGLVQPGGSLRLSCAASGFTFSTYGMSWVRQAPGKGLEWVAIISSGGSYTYYSDTVKGRFTISRDNSKNTLYLQMNSLRAEDTAVYYCSRSSSHWYFDVWGQGTLVTVSS VL: DIQMTQSPSSVSASVGDRVTITCHASQGISSNIGWLQQKPGKAFKGLIYHGTNLKDGVPSRFSGSGSGADFTLTISSLQPEDFATYFCVQYAQFPYTFGQGTKVEKR	0.09 µg/mL			
humanized 5E20 hu5E20VHv2/hu5E20VLv3 (antibody, V domains shown, Human IgG; also called 5E20H2L3) VH: EVQLVESGGGLVQPGGSLRLSCAASGFTFSTYGMSWVRQAPGKGLEWVAIISSGGSYTYYSDTVKGRFTISRDNSKNSLYLQMNSLRAEDTAVYYCSRSSSHWYFDVWGQGTLVTVSS VL: DIQMTQSPSSVSASVGDRVTITCHASQGISSNIGWLQQKPGKAFKGLIYHGTNLKDGVPSRFSGSGSGADFTLTISSLQPEDFATYFCVQYAQFPYTFGQGTKVEKR	0.1 µg/mL			
humanized 5E20 hu5E20VHv1/hu5E20VLv2 (antibody, V domains shown, Human IgG; also called 5E20H1L2) VH: EVQLLESGGGLVQPGGSLRLSCAASGFTFSTYGMSWVRQAPGKGLEWVAIISSGGSYTYYSDTVKGRFTISRDNSKNTLYLQMNSLRAEDTAVYYCSRSSSHWYFDVWGQGTLVTVSS VL: DIQMTQSPSSVSASVGDRVTITCHASQGISSNIGWLQQKPGKAFKGLIYHGTNLKDGVPSRFSGSGSGADFTLTISSLQPEDFATYFCVQYAQFPYTFGQGTKVEIR	0.12 µg/mL			
humanized 11M14 hu11M14VHv1b/hu11M14VLv2b (antibody, V domains shown, Human IgG; also called 11M14H1bL2b) VH: EVQLVESGGGLVQPGGSLRLSCAASGFTFNIYGMSWVRQAPGKGLEWVATISSGGIYTYYPDILKGRFTISRDNAKNSLYLQMNSLRAEDTAVYYCARHPGGAMDYWGQGTLVTVSS VL: DIQMTQSPSSLSASVGDRVTITCRVSENIYSNLAWYQQKPGKSPKLLVYAATNLADGVPSRFSGSGSGTDYTLTISSLQPEDFATYYCQHFWGTPPWTFGQGTKLEIK	0.08 µg/mL	5.37 nM	0.00193 s⁻¹	360000 M⁻¹ s⁻¹
chimeric 11M14 (antibody, human IgG1, kappa, L234A L235A, V domains shown) VH: EVQLVESGGDLVKPGGSLKLSCAASGFTFNIYGMSWVRQTPDKRLEWVATISSGGIYTYYPDILKGRFTISRDNAKNTLYLQMSSLKSEDTAMYYCARHPGGAMDYWGQGTSVTVSS VL: DIQMTQSPASLSVSVGETVTITCRVSENIYSNLAWYQQKQGKSPHLLVYAATNLADGVPSRFSGSGSGTQYSLKINSLQSEDFGSYYCQHFWGTPPWTFGGGTKLEIKR	0.06 µg/mL	2.52 nM		

Results, then the binder that gave them:

EC50 [1]	Kd [2]	koff [2]	kon [2]	Binder
0.19 µg/mL	7.07 nM	0.00225 s⁻¹	319000 M⁻¹ s⁻¹	humanized 11M14 hu11M14VHv3b/hu11M14VLv2b (antibody, V domains shown, Human IgG; also called 11M14H3bL2b) VH: EVQLVESGGGLVQPGGSLRLSCAASGFTFNIYGMSWVRQAPGKGLEWVATISSGGIYTYYPDILKGRFTISRDNAKNSLYGQMNSLRAEDTAVYYCARHPGGAMDYWGQGTLVTVSS VL: DIQMTQSPSSLSASVGDRVTITCRVSENIYSNLAWYQQKPGKSPKLLVYAATNLADGVPSRFSGSGSGTDYTLTISSLQPEDFATYYCQHFWGTPPWTFGQGTKLEIK
0.07 µg/mL	2.86 nM	0.0012 s⁻¹	421000 M⁻¹ s⁻¹	humanized 11M14 hu11M14VHv2b/hu11M14VLv2b (antibody, V domains shown, Human IgG; also called 11M14H2bL2b) VH: EVQLVESGGGLVQPGGSLRLSCAASGFTFNIYGMSWVRQAPGKGLEWVATISSGGIYTYYPDILKGRFTISRDNAKNSLYLQMNSGRAEDTAVYYCARHPGGAMDYWGQGTLVTVSS VL: DIQMTQSPSSLSASVGDRVTITCRVSENIYSNLAWYQQKPGKSPKLLVYAATNLADGVPSRFSGSGSGTDYTLTISSLQPEDFATYYCQHFWGTPPWTFGQGTKLEIK
0.07 µg/mL	5.3 nM	0.002 s⁻¹	377000 M⁻¹ s⁻¹	humanized 11M14 hu11M14VHv1b/hu11M14VLv3b (antibody, V domains shown, Human IgG; also called 11M14H1bL3b; hu11M14H1bL3b) VH: EVQLVESGGGLVQPGGSLRLSCAASGFTFNIYGMSWVRQAPGKGLEWVATISSGGIYTYYPDILKGRFTISRDNAKNSLYLQMNSLRAEDTAVYYCARHPGGAMDYWGQGTLVTVSS VL: DIQMTQSPSSLSASVGDRVTITCRVSENIYSNLAWYQQKPGKSPKLLVYAATNGADGVPSRFSGSGSGTDYTLTISSLQPEDFATYYCQHFWGTPPWTFGQGTKLEIK
0.23 µg/mL	9.17 nM	0.00343 s⁻¹	374000 M⁻¹ s⁻¹	humanized 11M14 hu11M14VHv3b/hu11M14VLv3b (antibody, V domains shown, Human IgG; also called 11M14H3bL3b) VH: EVQLVESGGGLVQPGGSLRLSCAASGFTFNIYGMSWVRQAPGKGLEWVATISSGGIYTYYPDILKGRFTISRDNAKNSLYGQMNSLRAEDTAVYYCARHPGGAMDYWGQGTLVTVSS VL: DIQMTQSPSSLSASVGDRVTITCRVSENIYSNLAWYQQKPGKSPKLLVYAATNGADGVPSRFSGSGSGTDYTLTISSLQPEDFATYYCQHFWGTPPWTFGQGTKLEIK
0.08 µg/mL	5.32 nM	0.0019 s⁻¹	357000 M⁻¹ s⁻¹	humanized 11M14 hu11M14VHv1b/hu11M14VLv4b (antibody, V domains shown, Human IgG; also called 11M14H1bL4b) VH: EVQLVESGGGLVQPGGSLRLSCAASGFTFNIYGMSWVRQAPGKGLEWVATISSGGIYTYYPDILKGRFTISRDNAKNSLYLQMNSLRAEDTAVYYCARHPGGAMDYWGQGTLVTVSS VL: DIQMTQSPSSLSASVGDRVTITCRVSENIYSNLAWYQQKPGKSPKLLVYAATNIADGVPSRFSGSGSGTDYTLTISSLQPEDFATYYCQHFWGTPPWTFGQGTKLEIK
0.13 µg/mL	2.99 nM	0.00119 s⁻¹	398000 M⁻¹ s⁻¹	humanized 11M14 hu11M14VHv2b/hu11M14VLv3b (antibody, V domains shown, Human IgG; also called 11M14H2bL3b) VH: EVQLVESGGGLVQPGGSLRLSCAASGFTFNIYGMSWVRQAPGKGLEWVATISSGGIYTYYPDILKGRFTISRDNAKNSLYLQMNSGRAEDTAVYYCARHPGGAMDYWGQGTLVTVSS VL: DIQMTQSPSSLSASVGDRVTITCRVSENIYSNLAWYQQKPGKSPKLLVYAATNGADGVPSRFSGSGSGTDYTLTISSLQPEDFATYYCQHFWGTPPWTFGQGTKLEIK
0.1 µg/mL	2.84 nM	0.00117 s⁻¹	413000 M⁻¹ s⁻¹	humanized 11M14 hu11M14VHv2b/hu11M14VLv4b (antibody, V domains shown, Human IgG; also called 11M14H2bL4b) VH: EVQLVESGGGLVQPGGSLRLSCAASGFTFNIYGMSWVRQAPGKGLEWVATISSGGIYTYYPDILKGRFTISRDNAKNSLYLQMNSGRAEDTAVYYCARHPGGAMDYWGQGTLVTVSS VL: DIQMTQSPSSLSASVGDRVTITCRVSENIYSNLAWYQQKPGKSPKLLVYAATNIADGVPSRFSGSGSGTDYTLTISSLQPEDFATYYCQHFWGTPPWTFGQGTKLEIK

From patent US20230235048A1 (PROTHENA BIOSCIENCES, published 2023)
